Entries after “also recorded” stand apart in the source; their conditions may differ.
Assays:
[1] = tested on: NanoLuciferase fused to various IKZF3-based degradation tags; assay: Western blot of variant IKZF3-based degradation tags fused to NanoLuciferase in HEK293T cells; type: cell-based, human; details: tag fused to N-terminus of NanoLuciferase
Experimental: Additionally, the IKZF3-based degradation tags were modified using the following strategies:
(1) deleting N-terminal and/or C-terminal amino acid residues;
Protein degradation was measured using western blot as described in Example 2.

[2] = tested on: CAR19 fused to HilD tag and/or FurON; assay: Flow cytometry of surface CAR expression on JNL cells, 10 μM lenalidomide and/or bazedoxifene 24 hours; type: cell-based, human; details: surface CAR on transduced JNL cells; for % reduction in CAR expression / Effect of lenalidomide: 10 μM lenalidomide, 24 hours; for CAR Expression: flow cytometry, FurON constructs only in presence of bazedoxifene; for Effect of bazedoxifene: with/without bazedoxifene
Excerpt: Next, the surface expression of CAR19 on stably transduced JNL cells was examined by flow cytometry. […] On Day 2, cells were harvested, stained using biotinylated-protein L (Genscript, M00097) followed by PE conjugated streptavidin (Jackson Lab, 016-110-084), and subjected to flow cytometry analysis using Fortessa instrument.

With “IKZF3 136-170 MALEK: IKZF3 136-170 with helix MALEKMALEKMALE, SEQ ID NO: 86” the “ability of the tag to facilitate lenalidomide-dependent degradation of NanoLuciferase” value [1] was “retained the ability to facilitate lenalidomide-dependent degradation; also recorded: able to mediate lenalidomide-dependent degradation; also recorded: facilitated lenalidomide-induced degradation”.

B1: 766 (protein)
chain: MALPVTALLLPLALLLHAARPRSSLALSLTADQMVSALLDAEPPILYSEYDPTRPFSEASMMGLLTNLADRELVHMINWAKRVPGFVDLALHDQVHLLECAWMEILMIGLVWRSMEHPGKLLFAPNLLLDRNQGKCVEGGVEIFDMLLATSSRFRMMNLQGEEFVCLKSIILLNSGVYTFLSSTLKSLEEKDHIHRVLDKITDTLIHLMAKAGLTLQQQHQRLAQLLLILSHIRHMSSKRMEHLYSMKCKNVVPLSDLLLEMLDAHRLGTGAEDPRPSRKRRSLGDVGEIVMTQSPATLSLSPGERATLSCRASQDISKYLNWYQQKPGQAPRLLIYHTSRLHSGIPARFSGSGSGTDYTLTISSLQPEDFAVYFCQQGNTLPYTFGQGTKLEIKGGGGSGGGGSGGGGSQVQLQESGPGLVKPSETLSLTCTVSGVSLPDYGVSWIRQPPGKGLEWIGVIWGSETTYYQSSLKSRVTISKDNSKNQVSLKLSSVTAADTAVYYCAKHYYYGGSYAMDYWGQGTLVTVSSTTTPAPRPPTPAPTIASQPLSLRPEACRPAAGGAVHTRGLDFACDIYIWAPLAGTCGVLLLSLVITLYCKRGRKKLLYIFKQPFMRPVQTTQEEDGCSCRFPEEEEGGCELRVKFSRSADAPAYQQGQNQLYNELNLGRREEYDVLDKRRGRDPEMGGKPRRKNPQEGLYNELQKDKMAEAYSEIGMKGERRRGKGHDGLYQGLSTATKDTYDALHMQALPPRGGGGSGGGGTGGGGSGMHKRSHTGERPFQCNQCGASFTQKGNLLRHIKLHTGEKPFKCHLCNTASAEARHIKAEMGGKPIPNPLLGLDST
In the case of B1, the “% reduction in CAR expression” value [2] is reported as 92%, the Effect of lenalidomide [2] is reported as “Yes” and the “CAR Expression” value [2] is reported as “Yes”. The Effect of bazedoxifene [2] was “Yes”.

B2: 773 (protein)
chain: MALPVTALLLPLALLLHAARPRSSLAHKRSHTGERPFQCNQCGASFTQKGNLLRHIKLHTGEKPFKCHLCNTASAEARHIKAEMGGTGAEDPRPSRKRRSLGDVGEIVMTQSPATLSLSPGERATLSCRASQDISKYLNWYQQKPGQAPRLLIYHTSRLHSGIPARFSGSGSGTDYTLTISSLQPEDFAVYFCQQGNTLPYTFGQGTKLEIKGGGGSGGGGSGGGGSQVQLQESGPGLVKPSETLSLTCTVSGVSLPDYGVSWIRQPPGKGLEWIGVIWGSETTYYQSSLKSRVTISKDNSKNQVSLKLSSVTAADTAVYYCAKHYYYGGSYAMDYWGQGTLVTVSSTTTPAPRPPTPAPTIASQPLSLRPEACRPAAGGAVHTRGLDFACDIYIWAPLAGTCGVLLLSLVITLYCKRGRKKLLYIFKQPFMRPVQTTQEEDGCSCRFPEEEEGGCELRVKFSRSADAPAYQQGQNQLYNELNLGRREEYDVLDKRRGRDPEMGGKPRRKNPQEGLYNELQKDKMAEAYSEIGMKGERRRGKGHDGLYQGLSTATKDTYDALHMQALPPR
With B2 the “% reduction in CAR expression” value [2] was 4%, the Effect of lenalidomide [2] was “No” and the “CAR Expression” value [2] was “Yes”.

B3: 769 (protein)
chain: MALPVTALLLPLALLLHAARPEIVMTQSPATLSLSPGERATLSCRASQDISKYLNWYQQKPGQAPRLLIYHTSRLHSGIPARFSGSGSGTDYTLTISSLQPEDFAVYFCQQGNTLPYTFGQGTKLEIKGGGGSGGGGSGGGGSQVQLQESGPGLVKPSETLSLTCTVSGVSLPDYGVSWIRQPPGKGLEWIGVIWGSETTYYQSSLKSRVTISKDNSKNQVSLKLSSVTAADTAVYYCAKHYYYGGSYAMDYWGQGTLVTVSSTTTPAPRPPTPAPTIASQPLSLRPEACRPAAGGAVHTRGLDFACDIYIWAPLAGTCGVLLLSLVITLYCKRGRKKLLYIFKQPFMRPVQTTQEEDGCSCRFPEEEEGGCELRVKFSRSADAPAYQQGQNQLYNELNLGRREEYDVLDKRRGRDPEMGGKPRRKNPQEGLYNELQKDKMAEAYSEIGMKGERRRGKGHDGLYQGLSTATKDTYDALHMQALPPRGGGGSGGGGTGGGGSGMHKRSHTGERPFQCNQCGASFTQKGNLLRHIKLHTGEKPFKCHLCNTASAEARHIKAEMG
B3 was tested, and the “% reduction in CAR expression” value [2] was 90%, the Effect of lenalidomide [2] was “Yes” and the “CAR Expression” value [2] was “Yes”.

B4: 6761 (protein)
chain: MALPVTALLLPLALLLHAARPEIVMTQSPATLSLSPGERATLSCRASQDISKYLNWYQQKPGQAPRLLIYHTSRLHSGIPARFSGSGSGTDYTLTISSLQPEDFAVYFCQQGNTLPYTFGQGTKLEIKGGGGSGGGGSGGGGSQVQLQESGPGLVKPSETLSLTCTVSGVSLPDYGVSWIRQPPGKGLEWIGVIWGSETTYYQSSLKSRVTISKDNSKNQVSLKLSSVTAADTAVYYCAKHYYYGGSYAMDYWGQGTLVTVSSTTTPAPRPPTPAPTIASQPLSLRPEACRPAAGGAVHTRGLDFACDIYIWAPLAGTCGVLLLSLVITLYCKRGRKKLLYIFKQPFMRPVQTTQEEDGCSCRFPEEEEGGCELRVKFSRSADAPAYQQGQNQLYNELNLGRREEYDVLDKRRGRDPEMGGKPRRKNPQEGLYNELQKDKMAEAYSEIGMKGERRRGKGHDGLYQGLSTATKDTYDALHMQALPPRKGGGSKGGGTKGGGSKMHKRSHTGERPFQCNQCGASFTQKGNLLRHIKLHTGEKPFKCHLCNTASAEARHIKAEMGGKPIPNPLLGLDST
With B4 the “% reduction in CAR expression” value [2] was 77%, the Effect of lenalidomide [2] was “Yes” and the “CAR Expression” value [2] was “Yes”.

B5: 768 (protein)
chain: MALPVTALLLPLALLLHAARPEIVMTQSPATLSLSPGERATLSCRASQDISKYLNWYQQKPGQAPRLLIYHTSRLHSGIPARFSGSGSGTDYTLTISSLQPEDFAVYFCQQGNTLPYTFGQGTKLEIKGGGGSGGGGSGGGGSQVQLQESGPGLVKPSETLSLTCTVSGVSLPDYGVSWIRQPPGKGLEWIGVIWGSETTYYQSSLKSRVTISKDNSKNQVSLKLSSVTAADTAVYYCAKHYYYGGSYAMDYWGQGTLVTVSSTTTPAPRPPTPAPTIASQPLSLRPEACRPAAGGAVHTRGLDFACDIYIWAPLAGTCGVLLLSLVITLYCKRGRKKLLYIFKQPFMRPVQTTQEEDGCSCRFPEEEEGGCELRVKFSRSADAPAYQQGQNQLYNELNLGRREEYDVLDKRRGRDPEMGGKPRRKNPQEGLYNELQKDKMAEAYSEIGMKGERRRGKGHDGLYQGLSTATKDTYDALHMQALPPRGGGGSGGGGTGGGGSGMHKRSHTGERPFQCNQCGASFTQKGNLLRHIKLHTGEKPFKCHLCNTASAEARHIKAEMGGKPIPNPLLGLDST
In the case of B5, the “% reduction in CAR expression” value [2] is reported as 88%, the Effect of lenalidomide [2] is reported as “Yes” and the “CAR Expression” value [2] is reported as “Yes”.

B6: 774 (protein)
chain: MALPVTALLLPLALLLHAARPHKRSHTGERPFQCNQCGASFTQKGNLLRHIKLHTGEKPFKCHLCNTASAEARHIKAEMGGTGAEDPRPSRKRRSLGDVGEIVMTQSPATLSLSPGERATLSCRASQDISKYLNWYQQKPGQAPRLLIYHTSRLHSGIPARFSGSGSGTDYTLTISSLQPEDFAVYFCQQGNTLPYTFGQGTKLEIKGGGGSGGGGSGGGGSQVQLQESGPGLVKPSETLSLTCTVSGVSLPDYGVSWIRQPPGKGLEWIGVIWGSETTYYQSSLKSRVTISKDNSKNQVSLKLSSVTAADTAVYYCAKHYYYGGSYAMDYWGQGTLVTVSSTTTPAPRPPTPAPTIASQPLSLRPEACRPAAGGAVHTRGLDFACDIYIWAPLAGTCGVLLLSLVITLYCKRGRKKLLYIFKQPFMRPVQTTQEEDGCSCRFPEEEEGGCELRVKFSRSADAPAYQQGQNQLYNELNLGRREEYDVLDKRRGRDPEMGGKPRRKNPQEGLYNELQKDKMAEAYSEIGMKGERRRGKGHDGLYQGLSTATKDTYDALHMQALPPR
In the case of B6, the “% reduction in CAR expression” value [2] is reported as 5%, the Effect of lenalidomide [2] is reported as “No” and the “CAR Expression” value [2] is reported as “Yes”.

B7: 767 (protein)
chain: MALPVTALLLPLALLLHAARPRSSLALSLTADQMVSALLDAEPPILYSEYDPTRPFSEASMMGLLTNLADRELVHMINWAKRVPGFVDLALHDQVHLLECAWMEILMIGLVWRSMEHPGKLLFAPNLLLDRNQGKCVEGGVEIFDMLLATSSRFRMMNLQGEEFVCLKSIILLNSGVYTFLSSTLKSLEEKDHIHRVLDKITDTLIHLMAKAGLTLQQQHQRLAQLLLILSHIRHMSSKRMEHLYSMKCKNVVPLSDLLLEMLDAHRLGTGAEDPRPSRKRRSLGDVGEIVMTQSPATLSLSPGERATLSCRASQDISKYLNWYQQKPGQAPRLLIYHTSRLHSGIPARFSGSGSGTDYTLTISSLQPEDFAVYFCQQGNTLPYTFGQGTKLEIKGGGGSGGGGSGGGGSQVQLQESGPGLVKPSETLSLTCTVSGVSLPDYGVSWIRQPPGKGLEWIGVIWGSETTYYQSSLKSRVTISKDNSKNQVSLKLSSVTAADTAVYYCAKHYYYGGSYAMDYWGQGTLVTVSSTTTPAPRPPTPAPTIASQPLSLRPEACRPAAGGAVHTRGLDFACDIYIWAPLAGTCGVLLLSLVITLYCKRGRKKLLYIFKQPFMRPVQTTQEEDGCSCRFPEEEEGGCELRVKFSRSADAPAYQQGQNQLYNELNLGRREEYDVLDKRRGRDPEMGGKPRRKNPQEGLYNELQKDKMAEAYSEIGMKGERRRGKGHDGLYQGLSTATKDTYDALHMQALPPRGGGGSGGGGTGGGGSGMHKRSHTGERPFQCNQCGASFTQKGNLLRHIKLHTGEKPFKCHLCNTASAEARHIKAEMG
With B7 the “% reduction in CAR expression” value [2] was 95%, the Effect of lenalidomide [2] was “Yes” and the “CAR Expression” value [2] was “Yes”. For the same molecule, the Effect of bazedoxifene [2] was “Yes”.

B8: 765 (protein)
chain: MALPVTALLLPLALLLHAARPRSSLALSLTADQMVSALLDAEPPILYSEYDPTRPFSEASMMGLLTNLADRELVHMINWAKRVPGFVDLALHDQVHLLECAWMEILMIGLVWRSMEHPGKLLFAPNLLLDRNQGKCVEGGVEIFDMLLATSSRFRMMNLQGEEFVCLKSIILLNSGVYTFLSSTLKSLEEKDHIHRVLDKITDTLIHLMAKAGLTLQQQHQRLAQLLLILSHIRHMSSKRMEHLYSMKCKNVVPLSDLLLEMLDAHRLGTGAEDPRPSRKRRSLGDVGEIVMTQSPATLSLSPGERATLSCRASQDISKYLNWYQQKPGQAPRLLIYHTSRLHSGIPARFSGSGSGTDYTLTISSLQPEDFAVYFCQQGNTLPYTFGQGTKLEIKGGGGSGGGGSGGGGSQVQLQESGPGLVKPSETLSLTCTVSGVSLPDYGVSWIRQPPGKGLEWIGVIWGSETTYYQSSLKSRVTISKDNSKNQVSLKLSSVTAADTAVYYCAKHYYYGGSYAMDYWGQGTLVTVSSTTTPAPRPPTPAPTIASQPLSLRPEACRPAAGGAVHTRGLDFACDIYIWAPLAGTCGVLLLSLVITLYCKRGRKKLLYIFKQPFMRPVQTTQEEDGCSCRFPEEEEGGCELRVKFSRSADAPAYQQGQNQLYNELNLGRREEYDVLDKRRGRDPEMGGKPRRKNPQEGLYNELQKDKMAEAYSEIGMKGERRRGKGHDGLYQGLSTATKDTYDALHMQALPPR
B8 was tested, and the Effect of lenalidomide [2] was “No”, the “CAR Expression” value [2] was “Yes” and the Effect of bazedoxifene [2] was “Yes”.

Reference: US20220251152A1, “COMPOSITIONS AND METHODS FOR SELECTIVE PROTEIN DEGRADATION” (Novartis AG, priority 2019, published 2022)
